Data from PMC4002904.

How the values were obtained:
[1] = target: GAL4 DNA-binding domain fused full-length HBSP (Hepatitis B virus); test: two-hybrid; CheckMate mammalian two-hybrid in Huh-7 cells; pACT-EPHX1(353-455) with pBIND constructs and pG5luc reporter; renilla-normalised firefly luciferase at 48 h, relative to pBIND + pACT set to 1
[2] = target: GAL4 DNA-binding domain fused N terminal 47 amino acids of HBSP (Hepatitis B virus); test: as above

B1: VP16-tagged mEH 353-455 (domain or fragment)
chain: DLLTNVMLYWTTGTIISSQRFYKENLGQGWMTQKHERMKVYVPTGFSAFPFELLHTPEKWVRFKYPKLISYSYMVRGGHFAAFEEPELLAQDIRKFLSVLERQ
B1 gave a fold luciferase activity over the negative control [1] of 9 fold and a fold luciferase activity over the negative control [2] of 12 fold.
